Molecular target: T1, mouse CD137-Fc chimeric protein (mouse), P20334
T1 chain: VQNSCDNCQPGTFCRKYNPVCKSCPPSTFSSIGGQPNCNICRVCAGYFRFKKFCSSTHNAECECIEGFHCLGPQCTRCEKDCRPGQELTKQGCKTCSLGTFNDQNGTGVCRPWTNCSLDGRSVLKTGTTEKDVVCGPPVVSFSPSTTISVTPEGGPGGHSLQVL
Assay: SPR, CD137-Fc captured, binder injected
Conditions: remark: other sources report otherwise

Kd: 170 nM
koff: 0.059 s⁻¹
kon: 350000 M⁻¹ s⁻¹
B1: PRO963 (protein)
chain: DIQMTQSPSSLSASVGDRVTITCQASQSINDYLAWYQQKPGKAPKLLIYKASTLASGVPSRFSGSGSGTDFTLTISSLQPEDFATYYCQQGYIITDIDNVFGTGTKVTVLGGGGGSQVQLQESGPGLVKPSETLSLTCKVSGFSFSNSYWICWIRQPPGKGLEWIGCTFVGSSDSTYYANWAKGRVTISVDSSKNQFSLKLSSVTAADTAVYYCARHPSDAVYGYANNLWGQGTLVTVSSGGGGSGGGGSGGGGSGGGGSIQMTQSPSSLSASVGDRVTITCQASQSINNVLAWYQQKPGKAPKLLIYRASTLASGVPSRFSGSGSGTDFTLTISSLQPEDFATYYCQSSYGNYGDFGTGTKVTVLGGGGGSQVQLQESGPGLVKPSETLSLTCKVSGFSFSSGYDMCWIRQPPGKGLEWIGCVVAGSVDITYYASWAKGRVTISVDSSKNQFSLKLSSVTAADTAVYYCARKDAYSDAFNLWGQGTLVTVSSGGGGSGGGGSIQMTQSPSSLSASVGDRVTITCQSSESVYSNNQLSWYQQKPGQPPKLLIYDASDLASGVPSRFSGSGSGTDFTLTISSLQPEDFATYYCAGGFSSSSDTAFGGGTKLTVLGGGGGSGGGGSGGGGSGGGGSEVQLVESGGGLVQPGGSLRLSCAASGFSLSSNAMGWVRQAPGKGLEYIGIISVGGFTYYASWAKGRFTISRDNSKNTVYLQMNSLRAEDTATYFCARDRHGGDSSGAFYLWGQGTLVTVSS
